Data on six compounds can be found in paper PMC5374433, “Theranostic Value of Multimers: Lessons Learned from Trimerization of Neurotensin Receptor Ligands and Other Targeting Vectors” (Pharmaceuticals, 2017).

Like-named read-outs stand apart in the source and are kept apart here.

For one data set, the target named is human NTS1 (Homo sapiens, UniProt P30989). Nature of the data set: Competitive radioligand binding assay, NTS1. The conditions noted are these: Ki (NTS1, nM), membranes of CHO cells stably expressing human NTS1; mean ± SEM, 4-8 experiments. As to the method:
(§1) Receptor binding data were performed as described previously. […] NTS2 binding was conducted using homogenates of membranes from HEK 293 cells transiently transfected with pcDNA3.1 carrying the human NTS2 gene (Missouri S&T cDNA Resource Center (UMR), Rolla, MO, USA) using the Mirus TransIT-293 transfection reagent (MoBiTec, Göttingen, Germany) according to the manufacturer’s protocol.
(§2) Data analysis of the competition binding curves from the radioligand displacement experiments was done by non-linear regression analysis when applying the algorithms of the PRISM 6.0 software package (GraphPad Software, San Diego, CA, USA). EC50 values were derived from each dose-response curve and were subsequently transformed into the corresponding Ki values by applying the equation of Cheng and Prusoff. Mean Ki values and the corresponding S.E.M. values (standard error of the mean) were determined by analyzing four to eight individual experiments.

Data set [1] is described as follows: Octanol/PBS distribution coefficient log D pH 7.4. The format is physicochemical.
The nature of data set [2]: Biodistribution, LNCaP xenograft. The conditions noted are these: in vivo, 60 min p.i., estimated from PET ROI analysis, ± SD.
In the next data set the test system is PSMA. Further details: method as in PMID 25999035. The conditions noted are these: Ga complexes; read-out: Affinity IC50 (nM), PSMA; cited from earlier work.
For data set [3] the following is noted: in vivo, H2009 xenograft, 90 min p.i., estimated from PET ROI analysis, ± SD.
Data set [4] relates to αvβ6 integrin. More on the design: method as in PMID 27980050. The conditions noted are these: Ga complexes; read-out: Affinity IC50 (nM), αvβ6 integrin; cited from earlier work.
Data set [5] has as its system αvβ6 integrin. In words: Affinity to αvβ6 integrin. It is filed as binding. The conditions noted are these: Ga complexes.
The next data set deals with T1, human NTS2 (Homo sapiens, UniProt O95665).
T1 construct: host or cells: HEK 293 cells (transient transfection, pcDNA3.1)
T1 sequence (O95665 whole entry): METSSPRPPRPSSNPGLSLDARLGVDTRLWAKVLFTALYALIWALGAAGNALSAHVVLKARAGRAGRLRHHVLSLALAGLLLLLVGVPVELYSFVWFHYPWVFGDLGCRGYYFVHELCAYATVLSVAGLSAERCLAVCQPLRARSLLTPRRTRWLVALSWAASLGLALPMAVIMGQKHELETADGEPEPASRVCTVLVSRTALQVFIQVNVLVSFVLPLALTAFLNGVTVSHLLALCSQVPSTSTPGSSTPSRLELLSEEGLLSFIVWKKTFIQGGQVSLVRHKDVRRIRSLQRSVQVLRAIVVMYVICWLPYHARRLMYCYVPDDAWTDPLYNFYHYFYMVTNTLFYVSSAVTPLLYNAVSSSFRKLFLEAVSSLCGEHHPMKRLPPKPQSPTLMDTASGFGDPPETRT
In words: Competitive radioligand binding assay, NTS2. As to the method:
as §1, §2

The nature of data set [6]: Biodistribution in HT29 tumor-bearing nude mice. The conditions noted are these: mouse, in vivo, 60 min p.i. It is filed as in vivo, mouse. As to the method: For in vivo evaluation of [^68Ga]Ga-TRAP(NT4)3 the NTS1-positive human colorectal adenocarcinoma cells HT29 were injected in nude mice to generate a subcutaneous tumor. The radioligand was injected in the tail vein of the mice and the biodistribution was determined 60 and 90 min after tracer injection. […] The clearance rate of [^68Ga]Ga-TRAP(NT4)3 in these excretion organs was apparently low. […] (1.44 %ID/g). Blocking experiments were performed to confirm the specificity of the tumor uptake of [^68Ga]Ga-TRAP(NT4)3 in vivo. Therefore, TRAP(NT4)3 (20 nmol) or NT4 (100 nmol) were co-injected together with the radiotracer to define the nonspecific uptake of the tracer in the tumor region. […] Apart from the intestine, the uptake in all other organs was not affected by the blocking substances (Table 2), confirming the receptor-mediated uptake of [^68Ga]Ga-TRAP(NT4)3, as it was reported that NTS receptors are expressed in the small intestine of mice.
All animal experiments were performed in compliance with the protocols approved by the local Animal Protection Authorities (Regierung Mittelfranken, Germany, no. 54-2532.1-15/08). Female athymic NMRI nude mice (nu/nu) were obtained from Harlan Winkelmann GmbH (Borchen, Germany) at four weeks of age and were kept under standard conditions (12 h light/dark) with food and water available ad libitum for at least five weeks. HT29 tumors were generated as described before.
HT29 xenografted nude mice were injected with [^68Ga]Ga-TRAP(NT4)3 into a tail vein (2.5–7.5 MBq/mouse). The animals were killed by cervical dislocation 60 or 90 min p.i. The tumors, other tissues (lung, liver, kidneys, heart, spleen, brain, muscle, femur, and intestine) and blood were removed and weighed. Radioactivity of the samples was measured using a γ-counter and expressed as the percentage of injected dose per gram of tissue (%ID/g), from which tumor-to-blood ratios were calculated. Blocking experiments were carried out by co-injecting randomly chosen mice with TRAP(NT4)3 (20 nmol/mouse) or NT4 (100 nmol/mouse) together with the radiotracer. These mice were killed by cervical dislocation at 60 min p.i., and organs and tissue were removed, weighed, and counted as described above.

For data set [7] the following is noted: in vivo; cited from earlier work.
Another data set concerns H2009 xenograft. The conditions noted are these: in vivo, 1.5 h; cited from earlier work.
For data set [8] the following is noted: cited from earlier work.

human NTS1, sequence (P30989 whole entry): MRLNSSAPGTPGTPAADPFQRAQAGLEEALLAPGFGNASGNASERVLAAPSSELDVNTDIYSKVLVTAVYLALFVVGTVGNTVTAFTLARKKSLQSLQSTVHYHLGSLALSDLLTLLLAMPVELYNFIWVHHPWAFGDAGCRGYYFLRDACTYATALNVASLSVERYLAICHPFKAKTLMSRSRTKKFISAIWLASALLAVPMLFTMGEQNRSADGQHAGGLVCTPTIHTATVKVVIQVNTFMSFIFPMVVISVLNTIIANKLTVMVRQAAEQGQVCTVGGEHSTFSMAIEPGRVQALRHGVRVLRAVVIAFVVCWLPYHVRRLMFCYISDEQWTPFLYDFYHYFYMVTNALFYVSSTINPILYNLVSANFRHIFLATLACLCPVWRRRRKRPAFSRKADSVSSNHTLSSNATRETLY

With `CC(C)C[C@H](NC(=O)[C@@H](NC(=O)[C@H](Cc1ccc(O)cc1)NC(=O)[C@@H]1CCCN1C(=O)[C@H](CCCCN)NC(=O)CN(CCCCN)C(=O)[C@@H](N)CCCCn1cc(CNC(=O)CCP(=O)(O)CN2CCN(CP(=O)(O)CCC(=O)NCc3cn(CCCC[C@H](N)C(=O)N(CCCCN)CC(=O)N[C@@H](CCCCN)C(=O)N4CCC[C@H]4C(=O)N[C@@H](Cc4ccc(O)cc4)C(=O)N[C@H](C(=O)N[C@@H](CC(C)C)C(=O)O)C(C)(C)C)nn3)CCN(CP(=O)(O)CCC(=O)NCc3cn(CCCC[C@H](N)C(=O)N(CCCCN)CC(=O)N[C@@H](CCCCN)C(=O)N4CCC[C@H]4C(=O)N[C@@H](Cc4ccc(O)cc4)C(=O)N[C@H](C(=O)N[C@@H](CC(C)C)C(=O)O)C(C)(C)C)nn3)CC2)nn1)C(C)(C)C)C(=O)O` (single isomer, unassigned) [Ga-TRAP(NT4)3], the Ki at human NTS1 came to 0.12 ± 0.03 nM.

For `O=C(O)CC[C@H](NC(=O)N[C@@H](CCCCNC(=O)CCCCCCC(=O)NCCCC[C@H](NC(=O)[C@H](Cc1ccccc1)NC(=O)[C@H](Cc1ccccc1)NC(=O)CCC(C(=O)O)N1CCN(CC(=O)O)CCN(CC(=O)O)CCN(CC(=O)O)CC1)C(=O)O)C(=O)O)C(=O)O` (stereo partly shown) [DOTAGA-DUPA], in [1], the logD was -3.6 ± 0.2. Moreover, the tissue uptake at 1 h was 2.5 ± 0.14 %ID/g in data set [2] (read-out: Blood %ID/g); 29 ± 7 %ID/g in data set [2] (read-out: Kidney %ID/g); 2 ± 0.17 %ID/g in data set [2] (read-out: Liver %ID/g); 1.2 ± 0.13 %ID/g in data set [2] (read-out: Muscle %ID/g); 2 ± 0.2 %ID/g in data set [2] (read-out: Tumor %ID/g). Also, the IC50 in the data set on PSMA was 36 nM.

As to `CC(C)C[C@@H]1NC(=O)[C@H](CC(=O)O)NC(=O)CNC(=O)[C@H](CCCNC(=N)N)NC(=O)[C@H](Cc2ccccc2)NC(=O)[C@H](CCCCNC(=O)CCc2cn(CCCNC(=O)CCP(=O)(O)CN3CCN(CP(=O)(O)CCC(=O)NCCCn4cc(CCC(=O)NCCCC[C@H]5C(=O)N[C@@H](Cc6ccccc6)C(=O)N[C@@H](CCCNC(=N)N)C(=O)NCC(=O)N[C@@H](CC(=O)O)C(=O)N[C@@H](CC(C)C)C(=O)N[C@@H](C)C(=O)N[C@@H](Cc6ccccc6)C(=O)N6CCC[C@@H]6C(=O)N5C)nn4)CCN(CP(=O)(O)CCC(=O)NCCCn4cc(CCC(=O)NCCCC[C@H]5C(=O)N[C@@H](Cc6ccccc6)C(=O)N[C@@H](CCCNC(=N)N)C(=O)NCC(=O)N[C@@H](CC(=O)O)C(=O)N[C@@H](CC(C)C)C(=O)N[C@@H](C)C(=O)N[C@@H](Cc6ccccc6)C(=O)N6CCC[C@@H]6C(=O)N5C)nn4)CC3)nn2)N(C)C(=O)[C@H]2CCCN2C(=O)[C@H](Cc2ccccc2)NC(=O)[C@H](C)NC1=O` [TRAP(AvB6)3], the tissue uptake at 1.5 h in data set [3] (Blood %ID/g) is 1.9 ± 0.15 %ID/g; in data set [3] (Kidney %ID/g), 17.7 ± 6.5 %ID/g; in data set [3] (Liver %ID/g), 3.7 ± 0.14 %ID/g; in [3] (Muscle %ID/g), 0.71 ± 0.1 %ID/g; in [3] (Tumor %ID/g), 0.92 ± 0.08 %ID/g. Further, in the data set on αvβ6 integrin [4], the IC50 was 0.023 nM. Further, in the data set on αvβ6 integrin [5], the “Affinity factor monomer/trimer, αvβ6 integrin” value is listed as 11.

Regarding `CC(C)C[C@H](NC(=O)[C@@H](NC(=O)[C@H](Cc1ccc(O)cc1)NC(=O)[C@@H]1CCCN1C(=O)[C@H](CCCCN)NC(=O)CN(CCCCN)C(=O)[C@@H](N)CCCCn1cc(CNC(=O)CCP(=O)(O)CN2CCN(CP(=O)(O)CCC(=O)NCc3cn(CCCC[C@H](N)C(=O)N(CCCCN)CC(=O)N[C@@H](CCCCN)C(=O)N4CCC[C@H]4C(=O)N[C@@H](Cc4ccc(O)cc4)C(=O)N[C@H](C(=O)N[C@@H](CC(C)C)C(=O)O)C(C)(C)C)nn3)CCN(CP(=O)(O)CCC(=O)NCc3cn(CCCC[C@H](N)C(=O)N(CCCCN)CC(=O)N[C@@H](CCCCN)C(=O)N4CCC[C@H]4C(=O)N[C@@H](Cc4ccc(O)cc4)C(=O)N[C@H](C(=O)N[C@@H](CC(C)C)C(=O)O)C(C)(C)C)nn3)CC2)nn1)C(C)(C)C)C(=O)O` [TRAP(NT4)3], the Ki was 0.26 ± 0.05 nM at human NTS2 and 0.47 ± 0.05 nM on human NTS1. In addition, the logD in data set [1] (octanol/PBS, Ga complex, ± standard deviation, first reported herein, read-out: log D pH 7.4) was -3.7 ± 0.1. Further, the tissue uptake at 1 h came out at 1.74 %ID/g in data set [6] (read-out: HT29 tumor uptake); 0.13 %ID/g in [6] (read-out: blood uptake); 95 %ID/g in data set [6] (read-out: kidney uptake); 11 %ID/g in data set [6] (read-out: liver uptake); 0.09 %ID/g in data set [6] (read-out: muscle uptake).

As for “Arg^8-Arg^9-Pro^10-Tyr^11-Ile^12-Leu^13-OH [NT(8–13)]”, in data set [7], the biological half-life result is listed as “only a few minutes, or even less”.

As to “TRAP(AvB6)1: Ga-monomer of c(FRGDLAF-p[NMe]K), αvβ6 integrin (cyclo(FRGDLAF); not fully specified (C-terminus); also: TRAP chelator Ga complex, attachment site not given here)”, in the data set on H2009 xenograft, the “Blood %ID/g” value is given as 0.17 %ID/g, the “Kidney %ID/g” value is 4.3 %ID/g, the “Liver %ID/g” value is reported as 0.36 %ID/g and the “Muscle %ID/g” value is listed as 0.06 %ID/g. In addition, in the data set with H2009 xenograft, the “Tumor %ID/g” value is on record as 0.65 %ID/g. The “log D pH 7.4” value in data set [8] is −3.7. Besides, the IC50 in the data set with αvβ6 integrin [4] is 0.26 nM.
